Data taken from patent publication US20060257938A1, “Method of screening for drugs that block ligand binding to a lipid binding protein” (priority 2005, published 2006).

How the values were obtained:
Format in all cases: binding
Conditions in all cases: response relative to ADIFAB2
[1] = Probe fluorescence ratio response to palmitic acid relative to ADIFAB2
How it was run: (§1)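 Fluorescently labeled rat intestinal FABP variants were read at two emission wavelengths, near the unbound maximum (about 420 to 480 nm) and the FFA-bound maximum (about 495 to 580 nm). R = Fλ1/Fλ2 after subtracting probe-free intensity; ΔR = R+agent − R0, normalized to ADIFAB2 (rI-FABP-L72A).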

[2] = Probe fluorescence ratio response to oleic acid relative to ADIFAB2
How it was run: as §1

[3] = Probe fluorescence ratio response to linolenic acid relative to ADIFAB2
How it was run: as §1

[4] = Probe fluorescence ratio response to arachidonic acid relative to ADIFAB2
How it was run: as §1

[5] = Probe fluorescence ratio response to linoleic acid relative to ADIFAB2
How it was run: as §1

| Molecule | DR/DR PA [1] | DR/DR OA [2] | DR/DR LNA [3] | DR/DR AA ([4]; arachidonic acid) | DR/DR LA [5] | DR/DR AA ([4]; Arachidonic acid) |
| --- | --- | --- | --- | --- | --- | --- |
| 36Y, 72A (protein, listed as Rattus norvegicus, PEPTIDE (1)...(131) wild-type rat intestinal fatty acid binding protein) AFDGTWKVDRNENYEKFMEKMGINVVKRKLGAHDNYKLTITQEGNKFTVKESSNFRNIDVVFELGVDFAYSAADGTELTGTWTMEGNKLVGKFKRVDNGKELIAVREISGNELIQTYTYEGVEAKRIFKKE | 0.60 | 0.66 | 0.68 | 0.68 | 0.75 |  |
| 38S1, 72A (protein, listed as Rattus norvegicus, PEPTIDE (1)...(131) wild-type rat intestinal fatty acid binding protein) AFDGTWKVDRNENYEKFMEKMGINVVKRKLGAHDNLKSTITQEGNKFTVKESSNFRNIDVVFELGVDFAYSAADGTELTGTWTMEGNKLVGKFKRVDNGKELIAVREISGNELIQTYTYEGVEAKRIFKKE | 0.71 | 1.28 | 1.37 |  | 1.37 | 1.28 |
| 102Q, 72A (protein, listed as Rattus norvegicus, PEPTIDE (1)...(131) wild-type rat intestinal fatty acid binding protein) AFDGTWKVDRNENYEKFMEKMGINVVKRKLGAHDNLKLTITQEGNKFTVKESSNFRNIDVVFELGVDFAYSAADGTELTGTWTMEGNKLVGKFKRVDNGKEQIAVREISGNELIQTYTYEGVEAKRIFKKE | 0.30 | 0.60 | 0.71 | 0.62 | 0.66 |  |
| 38A2, 72A (protein, listed as Rattus norvegicus, PEPTIDE (1)...(131) wild-type rat intestinal fatty acid binding protein) AFDGTWKVDRNENYEKFMEKMGINVVKRKLGAHDNLKATITQEGNKFTVKESSNFRNIDVVFELGVDFAYSAADGTELTGTWTMEGNKLVGKFKRVDNGKELIAVREISGNELIQTYTYEGVEAKRIFKKE | 0.68 | 1.26 | 1.30 | 1.23 | 1.31 |  |
| 38K1, 72A (protein, listed as Rattus norvegicus, PEPTIDE (1)...(131) wild-type rat intestinal fatty acid binding protein) AFDGTWKVDRNENYEKFMEKMGINVVKRKLGAHDNLKKTITQEGNKFTVKESSNFRNIDVVFELGVDFAYSAADGTELTGTWTMEGNKLVGKFKRVDNGKELIAVREISGNELIQTYTYEGVEAKRIFKKE | 0.48 | 0.76 | 0.86 |  | 0.90 | 0.83 |
| 38F1, 72A (protein, listed as Rattus norvegicus, PEPTIDE (1)...(131) wild-type rat intestinal fatty acid binding protein) AFDGTWKVDRNENYEKFMEKMGINVVKRKLGAHDNLKFTITQEGNKFTVKESSNFRNIDVVFELGVDFAYSAADGTELTGTWTMEGNKLVGKFKRVDNGKELIAVREISGNELIQTYTYEGVEAKRIFKKE | 0.85 | 0.97 | 0.96 | 0.91 | 0.95 |  |
| 38N1, 72A (protein, listed as Rattus norvegicus, PEPTIDE (1)...(131) wild-type rat intestinal fatty acid binding protein) AFDGTWKVDRNENYEKFMEKMGINVVKRKLGAHDNLKNTITQEGNKFTVKESSNFRNIDVVFELGVDFAYSAADGTELTGTWTMEGNKLVGKFKRVDNGKELIAVREISGNELIQTYTYEGVEAKRIFKKE | 0.65 | 0.97 | 1.14 |  | 1.12 | 1.08 |
| 38E1, 72A (protein, listed as Rattus norvegicus, PEPTIDE (1)...(131) wild-type rat intestinal fatty acid binding protein) AFDGTWKVDRNENYEKFMEKMGINVVKRKLGAHDNLKETITQEGNKFTVKESSNFRNIDVVFELGVDFAYSAADGTELTGTWTMEGNKLVGKFKRVDNGKELIAVREISGNELIQTYTYEGVEAKRIFKKE | 0.31 | 0.54 | 0.29 | 0.57 | 0.59 |  |
| 38H1, 72A (protein, listed as Rattus norvegicus, PEPTIDE (1)...(131) wild-type rat intestinal fatty acid binding protein) AFDGTWKVDRNENYEKFMEKMGINVVKRKLGAHDNLKHTITQEGNKFTVKESSNFRNIDVVFELGVDFAYSAADGTELTGTWTMEGNKLVGKFKRVDNGKELIAVREISGNELIQTYTYEGVEAKRIFKKE | 0.74 | 1.16 | 1.19 |  | 1.25 | 1.24 |
| 38G1, 72A (protein, listed as Rattus norvegicus, PEPTIDE (1)...(131) wild-type rat intestinal fatty acid binding protein) AFDGTWKVDRNENYEKFMEKMGINVVKRKLGAHDNLKGTITQEGNKFTVKESSNFRNIDVVFELGVDFAYSAADGTELTGTWTMEGNKLVGKFKRVDNGKELIAVREISGNELIQTYTYEGVEAKRIFKKE | 0.56 | 1.03 | 1.07 |  | 1.10 | 1.03 |
| 38I3, 72A (protein, listed as Rattus norvegicus, PEPTIDE (1)...(131) wild-type rat intestinal fatty acid binding protein) AFDGTWKVDRNENYEKFMEKMGINVVKRKLGAHDNLKITITQEGNKFTVKESSNFRNIDVVFELGVDFAYSAADGTELTGTWTMEGNKLVGKFKRVDNGKELIAVREISGNELIQTYTYEGVEAKRIFKKE | 1.12 | 1.21 | 1.21 |  | 1.22 | 1.18 |
| 38T3, 72A (protein, listed as Rattus norvegicus, PEPTIDE (1)...(131) wild-type rat intestinal fatty acid binding protein) AFDGTWKVDRNENYEKFMEKMGINVVKRKLGAHDNLKTTITQEGNKFTVKESSNFRNIDVVFELGVDFAYSAADGTELTGTWTMEGNKLVGKFKRVDNGKELIAVREISGNELIQTYTYEGVEAKRIFKKE | 1.02 | 1.55 | 1.64 |  | 1.58 | 1.60 |
| 102P, 72A (protein, listed as Rattus norvegicus, PEPTIDE (1)...(131) wild-type rat intestinal fatty acid binding protein) AFDGTWKVDRNENYEKFMEKMGINVVKRKLGAHDNLKLTITQEGNKFTVKESSNFRNIDVVFELGVDFAYSAADGTELTGTWTMEGNKLVGKFKRVDNGKEPIAVREISGNELIQTYTYEGVEAKRIFKKE | 0.39 | 0.49 | 0.56 | 0.50 | 0.54 |  |
| 38V2, 72A (protein, listed as Rattus norvegicus, PEPTIDE (1)...(131) wild-type rat intestinal fatty acid binding protein) AFDGTWKVDRNENYEKFMEKMGINVVKRKLGAHDNLKVTITQEGNKFTVKESSNFRNIDVVFELGVDFAYSAADGTELTGTWTMEGNKLVGKFKRVDNGKELIAVREISGNELIQTYTYEGVEAKRIFKKE | 1.50 | 1.75 | 1.67 |  | 1.70 | 1.65 |
| 38Q1, 72A (protein, listed as Rattus norvegicus, PEPTIDE (1)...(131) wild-type rat intestinal fatty acid binding protein) AFDGTWKVDRNENYEKFMEKMGINVVKRKLGAHDNLKQTITQEGNKFTVKESSNFRNIDVVFELGVDFAYSAADGTELTGTWTMEGNKLVGKFKRVDNGKELIAVREISGNELIQTYTYEGVEAKRIFKKE | 1.30 | 1.75 | 1.87 |  | 1.90 | 1.87 |
